Reference: PMC3925092
pKd: −log10 of the molar value.

Assays:
[1] = molecular target: Hcp1 N93W/S158W double mutant (Hcp1WW) (enteroaggregative E. coli 17-2); experiment: SEC-MALS; MALLS-SEC-UV of Hcp1WW, data not shown; monomers in the hexamer
[2] = molecular target: Hcp2 of enteroaggregative E. coli (second T6SS gene cluster), wild type (enteroaggregative E. coli 17-2); experiment: SEC-MALS; SEC/MALS/UV/RI on KW803 and KW804 columns (Shodex), Tris-HCl 20 mM pH 7.5, NaCl 100 mM, 0.5 ml/min; monomers in the hexamer
[3] = molecular target: Hcp1 (hemolysin co-regulated protein 1) of the Sci-1 T6SS of enteroaggregative E. coli, wild type (enteroaggregative E. coli 17-2); experiment: as above
[4] = molecular target: Hcp1 (hemolysin co-regulated protein 1) of the Sci-1 T6SS of enteroaggregative E. coli, wild type (enteroaggregative E. coli 17-2); experiment: SPR; BIAcore T200, 25°C; Hcp1 immobilised by amine coupling (CM5 chip in the results, HC200m Xantech chip in the methods), Hcp1 3.75-120 µM as analyte in HBS-EP; steady state, 1:1 equilibrium model; hexamer with hexamer; Hcp1WW tested in the same conditions

Substance: Hcp1 N93W/S158W double mutant (Hcp1WW) (natural protein)
- stoichiometry N [1]: 6

Substance: Hcp2 of enteroaggregative E. coli (second T6SS gene cluster), wild type (natural protein)
- stoichiometry N [2]: 6

Substance: Hcp1 (hemolysin co-regulated protein 1) of the Sci-1 T6SS of enteroaggregative E. coli, wild type (natural protein)
- stoichiometry N [3]: 6
- pKd [4]: 5.14
